Measurements taken from US12144869B2, “Anti-ROR1 antibody conjugates, compositions comprising anti ROR1 antibody conjugates, and methods of making and using anti-ROR1 antibody conjugates” (Sutro Biopharma, Inc., priority 2022, dated 2024).
Changes are numbered by the printed parent chain.

Legend:
[1] = biological target: T1, human ROR1-Fz (Homo sapiens, UniProt Q01973); assay: Biacore off-rate and kinetic analysis, ROR1-Fz; format: binding; conditions: for Biacore human ROR1-Fz ka / Biacore human ROR1-Fz kd: Table 11, SP34 light chain
T1 construct: Frizzled (Fz, residues 165-305); His6 (C); purchased Acro Biosystems; host or cells: HEK293
T1 sequence (Q01973 165-305): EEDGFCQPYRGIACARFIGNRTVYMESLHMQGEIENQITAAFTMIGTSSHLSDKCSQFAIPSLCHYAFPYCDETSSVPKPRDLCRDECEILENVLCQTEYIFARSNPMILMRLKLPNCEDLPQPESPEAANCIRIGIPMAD
Experimental: Anti-Fc polyclonal antibodies were immobilized onto a CMS chip (GE Life Sciences) using amine coupling chemistry (from Amine Coupling Kit, GE Life Sciences). The immobilization steps were carried out at a flow rate of 25 μL/min in 1×HBS-EP+buffer (GE Life Sciences; 10× Stock diluted before use). The sensor surfaces were activated for 7 min with a mixture of NHS (0.05 M) and EDC (0.2 M). The Anti-Fc antibodies were injected over all 4 flow cells at a concentration of 25 ug/ml in 10 mM sodium acetate, pH 4.5, for 7 min. Ethanolamine (1 M, pH 8.5) was injected for 7 min to block any remaining activated groups. An average of 12,000 response units (RU) of capture antibody was immobilized on each flow cell.
Off-rate and kinetic binding experiments were performed at 25° C. using 1×HBS-EP+buffer. Test and control antibodies were injected over the anti-Fc surface at concentrations of 5-10 μg/mL for 12 seconds at a flow rate of 10 μL/min on flow cells 2, 3 and 4, followed by a buffer wash for 30 seconds at the same flow rate. Kinetic characterization of antibody samples was carried out with a range of antigen concentrations from 1-100 nM and 1 injection of 0 nM antigen (for example, 100, 50, 25, 6.25, 1.56 and 0 nM). After capturing ligand (antibody) on the anti-Fc surface, the analyte (hROR1, Fz or Kr domains, Acro Biosystems, Delaware) was bound for 180 seconds, followed by a 600 second dissociation phase at a flow rate of 50 μL/min. Between each ligand capture and analyte binding cycle, regeneration was carried out using 2 injections of 10 mM Glycine pH 2.0 for 30 seconds at 30 μL/min, followed by a 30 second buffer wash step.
The data was fit with the Biacore T200 Evaluation software, using a 1-1 Langmuir binding model. KD (affinity, nM) was determined as a ratio of the kinetic rate constants calculated from the fits of the association and dissociation phases.
For anti-CD3-LC-containing IgGs that had detectable ROR1-binding in ELISA (1944-A07 and 1987-C05 variants), those antibodies were further tested for binding by surface plasmon resonance (SPR). Binding kinetics were assessed to the ROR1-frizzled domain (hROR1-Fz) or the ROR1-extracellular domain (hROR1) for 1944-A07 and 1987-C05 variants, respectively. Briefly, anti-ROR1 antibodies were captured via anti-human Fc polyclonal antibodies immobilized to a CM5 chip, and ROR1 recombinant proteins were flowed across the surface to assess binding kinetics. hROR1 or hROR1-Fz domain (Acro Biosystems, Delaware) binding was tested at 100, 50, 25, 6.25, 1.5625 nM. The data was fit with the Biacore™ T200 Evaluation software, using a 1-1 Langmuir binding model. KD (affinity, nM) was determined as a ratio of the kinetic rate constants calculated from the fits of the association and dissociation phases.

[2] = Differential scanning fluorimetry (protein thermal shift; TM1/TM2); format: physicochemical; conditions: Table 11; melting temperature of the Fab domain
Experimental: A protein thermal shift assay was carried out by mixing the protein to be assayed with an environmentally sensitive dye (SYPRO Orange, Life Technologies Cat #S-6650) in a phosphate buffered solution (PBS), and monitoring the fluorescence of the mixture in real time as it underwent controlled thermal denaturation. Protein solutions between 0.2-2 mg/mL were mixed at a 1-1 volumetric ratio with a 1-500 PBS-diluted solution of SYPRO Orange (SYPRO Orange stock dye is 5000× in DMSO). 10 μL aliquots of the protein-dye mixture were dispensed in quadruplicate in a 384-well microplate (Bio-Rad Cat #MSP-3852), and the plate was sealed with an optically clear sealing film (Bio-Rad Cat #MSB-1001) and placed in a 384-well plate real-time thermocycler (Bio-Rad CFX384 Real Time System). The protein-dye mixture was heated from […], at increments of 0.1° C. per cycle (˜1.5° C. per minute), allowing 3 seconds of equilibration at each temperature before taking a fluorescence measurement. At the end of the experiment, the transition melting temperatures (TM1 and TM2) were determined using the Bio-Rad CFX manager software. TM1 represents the melting temperature of the Fc domain. TM2 represents the melting temperature of the Fab domain.
For the thermal stability of an antibody, the first melting peak (Tm1) coincides with the unfolding of the CH2 domain (FC stability), while the second melting peak (Tm2) occurs upon unfolding of the Fab domain.

[3] = Table 7, sample ROR1 Fz, 1944-A07 HC with different LCs

B1: 1944-A07 HC w/hUCHT1 LC3: HC of lead antibody 1944-A07 co-expressed with the LC of anti-CD3 antibody "hUCHT1-LC3" (antibody, V domains shown)
VH: EVQLVESGGGLVQPGGSLRLSCAASGFNITGYYIHWVRQAPGKGLEWVGYISPNSGSTYYADSVKGRFTISADTSKNTAYLQMNSLRAEDTAVYYCARDSRRYVRPFDYWGQGTLVTVSS
VL: DIQMTQSPSTLSASVGDRVTITCRASQDIRNYLNWYQQKPGKAPKLLIYYTSRLHSGVPSRFSGSGSGTEYTLTISSLQPDDFATYYCQQGNTLPWTFGGGTKVEIK
With B1 the ka1 [1, 3] was 1.85e+06 M⁻¹ s⁻¹, the kd1 [1, 3] was 0.119 s⁻¹ and the “KD (SPR binding kinetics)” value ([1]; hROR1-Fz, 1944-A07 variants) was “binding was not detected”.

B2: 1944-A07 HC w/hOKT3 LC1: HC of lead antibody 1944-A07 co-expressed with the LC of anti-CD3 antibody "hOKT3-LC1" (antibody, V domains shown)
VH: B1 VH
VL: DIQMTQSPSSLSASVGDRVTITCSASSSVSYMNWYQQKPGKAPKRLIYDTSKLASGVPSRFSGSGSGTEYTLTISSLQPEDFATYYCQQWSSNPFTFGQGTKLEIK
In the case of B2, the KD [1, 3] is reported as “Not detected”.

B3: 1944-A07 HC w/hSP34 LC3: HC of lead antibody 1944-A07 co-expressed with the LC of anti-CD3 antibody "hSP34-LC3" (antibody, V domains shown)
VH: B1 VH
VL: QTVVTQEPSLTVSPGGTVTLTCGSSTGAVTSGYYPNWFQQKPGQAPRGLIGGTKFLAPGTPARFSGSLLGGKAALTLSGVQPEDEAEYYCALWYSNRWVFGGGTQLTVTG
With B3 the ka1 [1, 3] was 360000 M⁻¹ s⁻¹ and the kd1 [1, 3] was 0.00228 s⁻¹.

B4: SRP2196-A04 (antibody, V domains shown)
VH: B1 VH with T30S, G31P, Y50Q, S52Y, N54I, S57H, Y60Q, D99E, R105G, D108G
VL: QAVVTQESALTTSPGETVTLTCRSSTGAVTTSNYANWVQEKPDHLFTGLIGGTNKRAPGVPARFSGSLIGDKAALTITGAQTEDEAIYFCALWYSNLWVFGGGTKLTVL
For B4, the “Biacore human ROR1-Fz ka” value [1] was 139000 M⁻¹ s⁻¹ and the “Biacore human ROR1-Fz kd” value [1] was 0.000343 s⁻¹.

B5: SRP2196-A05 (antibody, V domains shown)
VH: B1 VH with G31N, S57A, Y60Q, P106S, F107W
VL: B4 VL
With B5 the “TM2 (° C.)” value [2] was 71 °C, the “Biacore human ROR1-Fz ka” value [1] was 175000 M⁻¹ s⁻¹ and the “Biacore human ROR1-Fz kd” value [1] was 0.000682 s⁻¹.

B6: SRP2196-A06 (antibody, V domains shown)
VH: B1 VH with Y50Q, Y59H, Y60Q, E89G, P106G, F107W
VL: B4 VL
For B6, the “TM2 (° C.)” value [2] was 70 °C, the “Biacore human ROR1-Fz ka” value [1] was 180000 M⁻¹ s⁻¹ and the “Biacore human ROR1-Fz kd” value [1] was 0.00069 s⁻¹.

B7: SRP2196-A08 (antibody, V domains shown)
VH: B1 VH with Y60K, K76R, P106S, F107W
VL: B4 VL
With B7 the “TM2 (° C.)” value [2] was 69 °C, the “Biacore human ROR1-Fz ka” value [1] was 183000 M⁻¹ s⁻¹ and the “Biacore human ROR1-Fz kd” value [1] was 0.00078 s⁻¹.

B8: SRP2196-A10 (antibody, V domains shown)
VH: B1 VH with S57A, Y59H, T74I, Y94H, P106S, F107W
VL: B4 VL
With B8 the “TM2 (° C.)” value [2] was 68 °C, the “Biacore human ROR1-Fz ka” value [1] was 172000 M⁻¹ s⁻¹ and the “Biacore human ROR1-Fz kd” value [1] was 0.000479 s⁻¹.

B9: SRP2196-A11 (antibody, V domains shown)
VH: B1 VH with Y50Q, S57T, Y60D, P106G, F107W
VL: B4 VL
For B9, the “TM2 (° C.)” value [2] was 73 °C, the “Biacore human ROR1-Fz ka” value [1] was 191000 M⁻¹ s⁻¹ and the “Biacore human ROR1-Fz kd” value [1] was 0.000792 s⁻¹.

B10: SRP2196-B02 (antibody, V domains shown)
VH: B1 VH with G31Q, S57Q, Y60D, P106S, F107W
VL: B4 VL
In the case of B10, the “TM2 (° C.)” value [2] is reported as 69 °C, the “Biacore human ROR1-Fz ka” value [1] is reported as 163000 M⁻¹ s⁻¹ and the “Biacore human ROR1-Fz kd” value [1] is reported as 0.000227 s⁻¹.

B11: SRP2196-B04 (antibody, V domains shown)
VH: B1 VH with G31E, S57A, Y60Q, P106G, F107W
VL: B4 VL
For B11, the “TM2 (° C.)” value [2] was 72 °C, the “Biacore human ROR1-Fz ka” value [1] was 127000 M⁻¹ s⁻¹ and the “Biacore human ROR1-Fz kd” value [1] was 0.000352 s⁻¹.

B12: SRP2196-B05 (antibody, V domains shown)
VH: B1 VH with Y50Q, S57A, Y60H, P106G, F107W
VL: B4 VL
In the case of B12, the “TM2 (° C.)” value [2] is reported as 73 °C.

B13: SRP2196-B06 (antibody, V domains shown)
VH: B1 VH with Y50Q, Y60S, R105L, P106S, F107W
VL: B4 VL
For B13, the “TM2 (° C.)” value [2] was 70 °C, the “Biacore human ROR1-Fz ka” value [1] was 142000 M⁻¹ s⁻¹ and the “Biacore human ROR1-Fz kd” value [1] was 0.000423 s⁻¹.

B14: SRP2196-B08 (antibody, V domains shown)
VH: B1 VH with Y50Q, S57Y, Y60L, P106G, F107W
VL: B4 VL
In the case of B14, the “TM2 (° C.)” value [2] is reported as 75 °C, the “Biacore human ROR1-Fz ka” value [1] is reported as 156000 M⁻¹ s⁻¹ and the “Biacore human ROR1-Fz kd” value [1] is reported as 0.000488 s⁻¹.

B15: SRP2196-B10 (antibody, V domains shown)
VH: B1 VH with Y50S, S52T, N54L, S57A, Y59S, Y60K, V104I, P106S, F107W
VL: B4 VL
For B15, the “TM2 (° C.)” value [2] was 70 °C, the “Biacore human ROR1-Fz ka” value [1] was 128000 M⁻¹ s⁻¹ and the “Biacore human ROR1-Fz kd” value [1] was 0.000334 s⁻¹.

B16: SRP2196-C01 (antibody, V domains shown)
VH: B1 VH with T30I, Y50S, S52T, N54L, S57A, Y59S, Y60K, V104I, P106S, F107W
VL: B4 VL
In the case of B16, the “TM2 (° C.)” value [2] is reported as 70 °C, the “Biacore human ROR1-Fz ka” value [1] is reported as 125000 M⁻¹ s⁻¹ and the “Biacore human ROR1-Fz kd” value [1] is reported as 0.000457 s⁻¹.

B17: SRP1944-A07 w SP34 LC3: "initial antibody leads constructed with an SP34 light chain" (antibody, V domains shown)
VH: B1 VH
VL: B3 VL
For B17, the “Biacore human ROR1-Fz ka” value [1] was 597000 M⁻¹ s⁻¹ and the “Biacore human ROR1-Fz kd” value [1] was 0.0085 s⁻¹.

B18: SRP2196-A01 (antibody, V domains shown)
VH: B1 VH with Y50Q, S57Y, P106G, F107W
VL: B4 VL
For B18, the “TM2 (° C.)” value [2] was 74 °C.

B19: SRP2196-A02 (antibody, V domains shown)
VH: B1 VH with Y50Q, S57A, Y59H, Y60D, P106G, F107W
VL: B4 VL
In the case of B19, the “TM2 (° C.)” value [2] is reported as 71 °C.
